From PMC10922510

Key:
Assay in all cases: BLI
[1] = molecular target: biotinylated human FcγRIIa-131R extracellular domain with AviTag (human) (UniProt P12318)
[2] = molecular target: biotinylated human FcγRIIa-131H extracellular domain with AviTag (human) (UniProt P12318)
[3] = molecular target: biotinylated human FcγRIIb extracellular domain with AviTag (human) (UniProt P31994)
[4] = molecular target: biotinylated human FcγRIIIa-176V extracellular domain with AviTag (human) (UniProt P08637)
UniProt P08637, sequence (P08637 17-208 F176V): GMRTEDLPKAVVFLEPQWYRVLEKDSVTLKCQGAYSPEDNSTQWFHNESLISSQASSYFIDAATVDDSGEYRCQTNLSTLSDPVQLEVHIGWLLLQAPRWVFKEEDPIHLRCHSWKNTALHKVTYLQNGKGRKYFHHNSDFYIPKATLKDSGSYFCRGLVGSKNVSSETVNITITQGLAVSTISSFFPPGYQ

UniProt P31994, sequence (P31994 43-217): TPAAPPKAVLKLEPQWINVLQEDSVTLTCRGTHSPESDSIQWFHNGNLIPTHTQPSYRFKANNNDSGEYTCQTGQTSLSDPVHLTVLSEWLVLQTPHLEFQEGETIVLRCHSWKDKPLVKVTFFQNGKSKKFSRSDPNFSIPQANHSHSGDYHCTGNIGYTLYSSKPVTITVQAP

| Kd [1] [nM] | Kd [2] [nM] | Kd [3] [nM] | Kd [4] [nM] | Substance |
| --- | --- | --- | --- | --- |
| 210 | 120 |  |  | human IgG1 trastuzumab with Fc mutation G236A (antibody) |
|  |  | 310 |  | human IgG1 trastuzumab with Fc mutation P238D (antibody) |
| 610 | 290 | 360 | 610 | human IgG1 trastuzumab, wild-type Fc (antibody) |
